Assay results reported in US20110059095A1.
Where two headings read alike, the source gives them in different places. Values belong to the substance of their own block, whether it stands above or below them.

Assays:
[1] = target: full length human PAR-2 (human) (UniProt P55085); assay: cell-based or functional assay
[2] = target: full length mouse PAR-2 (mouse) (UniProt P55086); assay: cell-based or functional assay
monkey PAR-2 (monkey) = assay: cell-based or functional assay
[3] = target: T1, Peptide B (human PAR-2), C-terminal biotinylated (Human); assay: SPR, peptide immobilized
T1 sequence (peptide, C-terminal biotin via G4S linker): SLIGKVDGTSHVTGGGGGS

[4] = target: Peptide B (human PAR-2), unbiotinylated (Human); assay: SPR, antibody captured
[5] = target: full length human PAR-2 (human) (UniProt P55085); assay: cell ELISA, 10 ug/ml antibody
[6] = target: T2, Peptide B (human PAR-2), N-terminal biotinylated (Human); assay: SPR, peptide immobilized
T2 sequence (peptide, N-terminal biotin via G4S linker): GGGGSSLIGKVDGTSHVTG

[7] = target: T1, Peptide B (human PAR-2), C-terminal biotinylated (Human); assay: SPR, peptide immobilized; remark: listed apart in the source
[8] = target: C-terminal biotinylated human PAR-2 14-mer peptide SEQ ID NO:887 (Val-42 and Asp-43 to Ala) (human); assay: BLI Exp2
[9] = target: C-terminal biotinylated human PAR-2 14-mer peptide SEQ ID NO:885 (Val-42 to Ala) (human); assay: BLI Exp2
[10] = target: C-terminal biotinylated human PAR-2 14-mer peptide SEQ ID NO:886 (Asp-43 to Ala) (human); assay: BLI Exp2
[11] = target: C-terminal biotinylated human PAR-2 14-mer peptide SEQ ID NO:884 (…, wild-type) (human); assay: BLI Exp2
Sequence of C-terminal biotinylated human PAR-2 14-mer peptide SEQ ID NO:884 (…, wild-type) (human) (peptide, as listed by the source): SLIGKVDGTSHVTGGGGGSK

Sequence of full length human PAR-2 (human) (P55085 26-397 G138A limits assumed): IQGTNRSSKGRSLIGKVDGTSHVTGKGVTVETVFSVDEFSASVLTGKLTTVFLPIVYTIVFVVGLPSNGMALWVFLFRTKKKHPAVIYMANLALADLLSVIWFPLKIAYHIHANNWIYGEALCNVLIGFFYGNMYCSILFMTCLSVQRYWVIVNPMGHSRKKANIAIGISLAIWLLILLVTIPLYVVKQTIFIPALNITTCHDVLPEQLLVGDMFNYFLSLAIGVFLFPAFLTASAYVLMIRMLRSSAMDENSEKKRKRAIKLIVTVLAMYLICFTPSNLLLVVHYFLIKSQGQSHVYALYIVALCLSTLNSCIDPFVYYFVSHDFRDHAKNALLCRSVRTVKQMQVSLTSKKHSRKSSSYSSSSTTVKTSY
Sequence of Human Kallikrein 5 (Q9Y337 67-293 limits assumed): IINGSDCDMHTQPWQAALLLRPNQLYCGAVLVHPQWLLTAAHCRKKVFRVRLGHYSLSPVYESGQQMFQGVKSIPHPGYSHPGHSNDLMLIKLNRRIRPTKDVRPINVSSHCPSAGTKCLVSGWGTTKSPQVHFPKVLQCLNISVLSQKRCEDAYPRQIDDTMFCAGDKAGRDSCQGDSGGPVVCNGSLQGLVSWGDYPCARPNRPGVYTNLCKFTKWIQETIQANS
Sequence of C-terminal biotinylated human PAR-2 14-mer peptide SEQ ID NO:887 (Val-42 and Asp-43 to Ala) (human) (peptide, as listed by the source): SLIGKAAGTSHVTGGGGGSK
Sequence of full length mouse PAR-2 (mouse) (P55086 other isoform, or with tags, fused parts or gaps limits assumed): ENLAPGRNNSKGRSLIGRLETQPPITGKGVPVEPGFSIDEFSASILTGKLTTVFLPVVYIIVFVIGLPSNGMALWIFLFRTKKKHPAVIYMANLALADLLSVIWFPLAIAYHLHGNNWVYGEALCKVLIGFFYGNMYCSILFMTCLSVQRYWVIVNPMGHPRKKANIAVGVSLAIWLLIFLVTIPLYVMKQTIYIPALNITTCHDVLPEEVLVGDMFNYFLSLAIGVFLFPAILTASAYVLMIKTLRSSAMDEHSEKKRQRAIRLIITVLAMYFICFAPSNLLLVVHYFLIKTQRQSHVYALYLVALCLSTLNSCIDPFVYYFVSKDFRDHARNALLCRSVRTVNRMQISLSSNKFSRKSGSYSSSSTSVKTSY
Sequence of C-terminal biotinylated human PAR-2 14-mer peptide SEQ ID NO:885 (Val-42 to Ala) (human) (peptide, as listed by the source): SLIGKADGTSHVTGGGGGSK
Sequence of C-terminal biotinylated human PAR-2 14-mer peptide SEQ ID NO:886 (Asp-43 to Ala) (human) (peptide, as listed by the source): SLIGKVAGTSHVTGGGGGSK

EC50 of activator, NF-kB-luciferase [1]: 61.1 nM
Substance: Tryptase (Table 22) (enzyme)

EC50 of activator, NF-kB-luciferase [2]: 78.7 nM
EC50 of activator, NF-kB-luciferase [1]: 46.3 nM
Substance: Human Factor Xa (from UniProt P00742 41-488) (enzyme)

IC50, calcium mobilization FLIPR, 100 nM Trypsin [1]: > 1000 nM
Substance: Non-Specific Control (non-PAR-2 specific control antibody)

EC50 of activator, NF-kB-luciferase (monkey PAR-2 (monkey)): 16.8 nM
EC50 of activator, NF-kB-luciferase [1]: 28 nM
Substance: Human Kallikrein 5 (from UniProt Q9Y337 67-293) (enzyme)

EC50 of activator, NF-kB-luciferase (monkey PAR-2 (monkey)): 2.4 nM
Substance: Human Pancreatic Trypsin (enzyme)

Kd [3]: 0.935 nM
T1/2 [3]: 14 min
Kd [4]: 149 nM
T1/2 [4]: 0.1 min
A450 ratio (293/D9/hPAR-2rec to 293/D9 cells) [5]: 1.49
Kd [6]: 0.279 nM
T1/2 [6]: 32 min
Kd [7]: 0.99 nM
T1/2 [7]: 19 min
Substance: Sam11, commercially available mouse monoclonal antibody that binds human PAR-2 (Santa Cruz Biotechnology)

% Rel Binding [8]: 87%
% Rel T1/2 [8]: 27%
% Rel Binding [9]: 120%
% Rel T1/2 [9]: 159%
% Rel Binding [10]: 88%
% Rel T1/2 [10]: 27%
% Rel Binding [11]: 100%
% Rel T1/2 [11]: 100%
Substance: Comparator 2, antibody having the heavy and light chain variable regions of the antibody referred to as Sam-11 (Molino et al. 1998)

EC50 of activator, NF-kB-luciferase (monkey PAR-2 (monkey)): 58.2 nM
EC50 of activator, NF-kB-luciferase [2]: 46.3 nM
EC50 of activator, NF-kB-luciferase [1]: 27.2 nM
Substance: Bovine Factor Xa (from UniProt P00743 41-492) (enzyme)
